Laboratory results: PMC4430316, “Differential Phosphorylation of RNA Polymerase III and the Initiation Factor TFIIIB in Saccharomyces cerevisiae” (PLoS ONE, 2015)

Molecular target: T1, Rpc160-HA (S. cerevisiae, UniProt P04051 1-1460)
T1 construct: Rpc160 (C160), largest subunit of RNA polymerase III, S. cerevisiae; Precipitated from cell extract, so other pol III subunits are probably present with it; also called C160-3HA; largest subunit of pol III; not shown: 3HA, C-terminal, kept
T1 sequence (looked up): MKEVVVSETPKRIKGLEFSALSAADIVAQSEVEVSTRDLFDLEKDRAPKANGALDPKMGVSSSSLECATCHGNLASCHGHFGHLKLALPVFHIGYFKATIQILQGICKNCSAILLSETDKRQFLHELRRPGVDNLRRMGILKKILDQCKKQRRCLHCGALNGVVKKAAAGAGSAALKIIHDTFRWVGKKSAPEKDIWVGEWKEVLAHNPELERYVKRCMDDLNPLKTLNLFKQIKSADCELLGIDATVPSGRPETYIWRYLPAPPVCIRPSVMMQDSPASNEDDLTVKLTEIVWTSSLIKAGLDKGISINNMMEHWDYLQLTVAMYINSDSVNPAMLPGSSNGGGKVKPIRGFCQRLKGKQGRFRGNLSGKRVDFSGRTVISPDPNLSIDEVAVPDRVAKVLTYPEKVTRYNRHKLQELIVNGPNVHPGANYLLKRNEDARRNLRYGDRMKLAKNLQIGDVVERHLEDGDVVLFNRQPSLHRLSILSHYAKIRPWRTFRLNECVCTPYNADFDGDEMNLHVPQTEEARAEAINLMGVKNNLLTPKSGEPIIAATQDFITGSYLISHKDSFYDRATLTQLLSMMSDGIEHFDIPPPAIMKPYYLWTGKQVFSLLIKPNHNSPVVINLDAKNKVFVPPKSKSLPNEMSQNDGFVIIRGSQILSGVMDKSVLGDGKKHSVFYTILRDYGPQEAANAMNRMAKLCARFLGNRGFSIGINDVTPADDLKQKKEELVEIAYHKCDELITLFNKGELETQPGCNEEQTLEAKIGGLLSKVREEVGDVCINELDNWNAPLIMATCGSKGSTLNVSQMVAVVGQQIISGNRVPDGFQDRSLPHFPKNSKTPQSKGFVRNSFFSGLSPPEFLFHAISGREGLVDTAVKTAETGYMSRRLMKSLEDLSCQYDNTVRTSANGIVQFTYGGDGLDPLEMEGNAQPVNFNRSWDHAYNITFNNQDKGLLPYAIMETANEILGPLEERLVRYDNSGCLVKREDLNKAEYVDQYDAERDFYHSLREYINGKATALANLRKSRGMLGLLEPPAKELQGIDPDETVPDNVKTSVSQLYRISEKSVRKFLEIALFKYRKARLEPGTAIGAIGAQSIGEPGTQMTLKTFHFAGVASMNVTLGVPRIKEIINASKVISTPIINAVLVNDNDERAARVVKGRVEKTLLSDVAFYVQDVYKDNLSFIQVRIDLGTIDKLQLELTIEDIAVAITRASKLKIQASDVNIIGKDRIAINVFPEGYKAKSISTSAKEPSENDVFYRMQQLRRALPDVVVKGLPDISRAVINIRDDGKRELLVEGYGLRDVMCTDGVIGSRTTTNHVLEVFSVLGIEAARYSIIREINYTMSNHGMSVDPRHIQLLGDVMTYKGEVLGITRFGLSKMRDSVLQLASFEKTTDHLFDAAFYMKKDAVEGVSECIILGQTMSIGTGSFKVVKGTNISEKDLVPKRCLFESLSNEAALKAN
Test: co-IP; Rpc160-HA precipitated with HA monoclonal antibody 12CA5 and protein G-Sepharose from yeast extracts (glass bead breakage, KBC100 buffer with protease and phosphatase inhibitors); Maf1 detected with polyclonal Maf1 antibody, Maf1myc with anti-myc; cells treated with rapamycin or untreated; also in BDP1 wild-type and BDP1-4SA strains (S4 Fig)
Conditions: partners not purified

B1: Maf1 (natural protein, S. cerevisiae, UniProt P41910 1-395, looked up)
chain: MKFIDELDIERVNQTLNFETNDCKIVGSCDIFTTKAVASDRKLYKTIDQHLDTILQENENYNATLQQQLAAPETNQSPCSSPFYSNRRDSNSFWEQKRRISFSEYNSNNNTNNSNGNSSNNNNYSGPNGSSPATFPKSAKLNDQNLKELVSNYDSGSMSSSSLDSSSKNDERIRRRSSSSISSFKSGKSSNNNYSSGTATNNVNKRRKSSINERPSNLSLGPFGPINEPSSRKIFAYLIAILNASYPDHDFSSVEPTDFVKTSLKTFISKFENTLYSLGRQPEEWVWEVINSHMTLSDCVLFQYSPSNSFLEDEPGYLWNLIGFLYNRKRKRVAYLYLICSRLNSSTGEVEDALAKKPQGKLIIDDGSNEYEGEYDFTYDENVIDDKSDQEESLQ
notes: Maf1, repressor of RNA polymerase III transcription, S. cerevisiae; untagged, detected with a polyclonal Maf1 antibody; Phosphorylation state differs between control and rapamycin-treated cells; also called untagged Maf1; source: endogenous, yeast cell extract
fold increase of Maf1 co-immunoprecipitated with Rpc160 in rapamycin-treated against untreated cells: ~13 fold

B2: Maf1myc (natural protein, S. cerevisiae, UniProt P41910 1-395, looked up)
chain: MKFIDELDIERVNQTLNFETNDCKIVGSCDIFTTKAVASDRKLYKTIDQHLDTILQENENYNATLQQQLAAPETNQSPCSSPFYSNRRDSNSFWEQKRRISFSEYNSNNNTNNSNGNSSNNNNYSGPNGSSPATFPKSAKLNDQNLKELVSNYDSGSMSSSSLDSSSKNDERIRRRSSSSISSFKSGKSSNNNYSSGTATNNVNKRRKSSINERPSNLSLGPFGPINEPSSRKIFAYLIAILNASYPDHDFSSVEPTDFVKTSLKTFISKFENTLYSLGRQPEEWVWEVINSHMTLSDCVLFQYSPSNSFLEDEPGYLWNLIGFLYNRKRKRVAYLYLICSRLNSSTGEVEDALAKKPQGKLIIDDGSNEYEGEYDFTYDENVIDDKSDQEESLQ
notes: Maf1, repressor of RNA polymerase III transcription, S. cerevisiae; also called Maf1-9myc; C-terminal myc-tagged Maf1
fold increase of Maf1myc co-immunoprecipitated with Rpc160 in rapamycin-treated against untreated cells: < 2 fold
